Data taken from US20030073629A1, “Omi and domains thereof that disrupt IAP-caspase interaction” (priority 2001, published 2003).
Residue numbers refer to the chain shown, from its start. Numbers in names are those of the source.

B1: Smac: mitochondrial IAP-binding protein; recombinant mature form with C-terminal His6 tag (protein, UniProt Q9NR28 22-239, looked up)
Diablo IAP-binding …: LCVPVVANFKKRCFSELIRPWHKTVTIGFGVTLCAVPIAQKSEPHSLSSEALMRRAVSLVTDSTSTFLSQTTYALIEAITEYTKAVYTLTSLYRQYTSLLGKMNSEEEDEVWQVIIGARAEMTSKHQEYLKLETTWMTAVGLSEMAAEAAYQTGADQASITARNHIQLVKLQVEEVHQLSRKAETKLAEAQIEELRQKTQEEGEERAESEQEAYLRED
modifications: C-terminal His6 tag
B2: Omi-S306A: recombinant mature Omi with active site Ser306 mutated to Ala, C-terminal His6 tag (protein)
chain: AVPSPPPASPRSQYNFIADVVEKTAPAVVYIEILDRHPFLGREVPISNGSGFVVAADGLIVTNAHVVADRRRVRVRLLSGDTYEAVVTAVDPVADIATLRIQTKEPLPTLPLGRSADVRQGEFVVAMGSPFALQNTITSGIVSSAQRPARDLGLPQTNVEYIQTDAAIDFGNAGGPLVNLDGEVIGVNTMKVTAGISFAIPSDRLREFLHRGEKKNSSSGISGSQRRYIGVMMLTLSPSILAELQLREPSFPDVQHGVLIHKVILGSPAHRAGLRPGDVILAIGEQMVQNAEDVYEAVRTQSQLAVQIRRGRETLTLYVTPEVTEHHHHHH
B3: Omi-ΔAVPS: recombinant mature Omi with deletion of the AVPS motif, C-terminal His6 tag (protein)
chain: PPPASPRSQYNFIADVVEKTAPAVVYIEILDRHPFLGREVPISNGSGFVVAADGLIVTNAHVVADRRRVRVRLLSGDTYEAVVTAVDPVADIATLRIQTKEPLPTLPLGRSADVRQGEFVVAMGSPFALQNTITSGIVSSAQRPARDLGLPQTNVEYIQTDAAIDFGNSGGPLVNLDGEVIGVNTMKVTAGISFAIPSDRLREFLHRGEKKNSSSGISGSQRRYIGVMMLTLSPSILAELQLREPSFPDVQHGVLIHKVILGSPAHRAGLRPGDVILAIGEQMVQNAEDVYEAVRTQSQLAVQIRRGRETLTLYVTPEVTEHHHHHH
B4: AAAS: C-terminal Flag-tagged Omi precursor mutant with the AVPS motif mutated to AAAS (protein, UniProt O43464 1-458, looked up, variant V135A P136A)
chain: MAAPRAGRGAGWSLRAWRALGGIRWGRRPRLTPDLRALLTSGTSDPRARVTYGTPSLWARLSVGVTEPRACLTSGTPGPRAQLTAVTPDTRTREASENSGTRSRAWLAVALGAGGAVLLLLWGGGRGPPAVLAAAASPPPASPRSQYNFIADVVEKTAPAVVYIEILDRHPFLGREVPISNGSGFVVAADGLIVTNAHVVADRRRVRVRLLSGDTYEAVVTAVDPVADIATLRIQTKEPLPTLPLGRSADVRQGEFVVAMGSPFALQNTITSGIVSSAQRPARDLGLPQTNVEYIQTDAAIDFGNSGGPLVNLDGEVIGVNTMKVTAGISFAIPSDRLREFLHRGEKKNSSSGISGSQRRYIGVMMLTLSPSILAELQLREPSFPDVQHGVLIHKVILGSPAHRAGLRPGDVILAIGEQMVQNAEDVYEAVRTQSQLAVQIRRGRETLTLYVTPEVTE
modifications: full-length C-terminal Flag tag
B5: Omi precursor: C-terminally Flag-tagged full-length Omi precursor (SEQ ID NO:1) expressed from a transfected construct (protein, listed as Homo sapiens)
chain: B4 chain with A135V, A136P
modifications: C-terminal Flag tag
B6: active site Omi precursor mutant: S306A Omi precursor with mutant VVAS sequence instead of the AVPS motif (protein, UniProt O43464 1-458, looked up, variant A134V P136A S306A)
chain: B4 chain with A134V, A135V, S306A
modifications: full-length

Legend:
[1] = tested on: GST-BIR1, 2 fusion protein; experiment: Interaction of purified recombinant proteins with GST-BIR1, 2 fusion protein; assay type: binding, human; details: purified C-terminal His6-tagged recombinant protein
Chain of GST-BIR1, 2 fusion protein (P98170 124-240 limits assumed): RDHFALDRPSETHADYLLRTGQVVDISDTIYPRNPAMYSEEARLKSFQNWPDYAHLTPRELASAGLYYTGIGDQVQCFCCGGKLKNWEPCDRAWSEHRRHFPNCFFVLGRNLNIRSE
Description: (§1) FIGS. 7A and 7B are scanned images of Coomassie stained gels representing SDS-PAGE analysis of purified C-terminal His6-tagged recombinant wild type mature Omi (WT), Omi-ΔAVPS, Omi-S306A, and mature Smac (7A) and recombinant Omi and Smac proteins with GST-BIR1, GST-BIR2, GST-BIR3, or GST-BIR3-E314S fusion proteins (7B).
(§2) To determine whether a recombinant Omi lacking the first 133 residues (mature Omi) can interact with the GST-BIR3 fusion protein, this protein was expressed with a C-terminal His6 tag in bacteria and purified to apparent homogeneity (see FIG. 7B). […] FIGS. 7A and 7B show scanned images of Coomassie stained gels representing SDS-PAGE analysis of purified C-terminal His6-tagged recombinant wild type mature Omi (WT), Omi-ΔAVPS, Omi-S306A, and mature Smac (FIG. 7A) and recombinant Omi and Smac proteins with GST-BIR1, 2, GST-BIR3 or GST-BIR3-E314S fusion proteins (FIG. 7B).

GST-BIR3-E314S mutant = biological target: T1, GST-BIR3-E314S mutant (Homo sapiens, UniProt P98170, E314S); experiment: Interaction of purified recombinant proteins with GST-BIR3-E314S mutant; assay type: binding; details: purified C-terminal His6-tagged recombinant protein
T1 construct: Omi associates directly with the BIR3 domain of XIAP
T1 sequence (P98170 238-358 E314S limits assumed): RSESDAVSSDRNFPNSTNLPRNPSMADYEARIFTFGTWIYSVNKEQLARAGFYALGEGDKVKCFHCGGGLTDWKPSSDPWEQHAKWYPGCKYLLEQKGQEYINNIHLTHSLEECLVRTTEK
Description: as §1
To confirm that Omi associates directly with the BIR3 domain of XIAP but not with the Smac protein, Smac was depleted from the 293 extracts using a Smac monoclonal antibody. Specifically, 293 cellular extracts were either left untreated (undepleted lane of FIG. 4) or depleted with a Smac antibody (lane depleted of FIG. 4). The undepleted and depleted extracts were incubated with the GST-BIR3 protein and the bound proteins were eluted as above. The eluates were then analyzed by far-western blotting with ^35S-XIAP and by western blotting with the Smac antibody as described above (see FIG. 4, left and right panels, respectively). […] The last lane of each panel in FIG. 4 represents the 293 cellular extracts that were bound to the E314S mutant GST-BIR3 fusion protein. […] The asterisk in FIG. 4 indicates non-specific bands and the arrow indicates the IgG band. […]

[2] = biological target: T2, GST-BIR3 fusion protein (BIR3 domain of human XIAP) (Homo sapiens, UniProt P98170); experiment: Interaction of purified recombinant proteins with GST-BIR3 fusion protein (SDS-PAGE, Coomassie); assay type: binding; details: purified C-terminal His6-tagged recombinant protein; wild type GST-BIR3
T2 construct: Omi associates directly with the BIR3 domain of XIAP
T2 sequence (P98170 238-358 limits assumed): as the sequence (P98170 238-358 E314S limits assumed) above, with S77E counted along it
Description: as §1, §2

[3] = biological target: T3, caspase-9 interaction with XIAP (procaspase-3 activation) (Homo sapiens, UniProt P98170); experiment: Procaspase-3 activation in XIAP-containing S100 extracts stimulated with cytochrome c and dATP; assay type: biochemical; details: S100 extracts with purified XIAP, cytochrome c plus dATP; 10, 50 or 300 ng protein
T3 construct: caspase-9: endogenous in 293T/HEK293 S100 extract
T3 sequence (P98170 whole entry): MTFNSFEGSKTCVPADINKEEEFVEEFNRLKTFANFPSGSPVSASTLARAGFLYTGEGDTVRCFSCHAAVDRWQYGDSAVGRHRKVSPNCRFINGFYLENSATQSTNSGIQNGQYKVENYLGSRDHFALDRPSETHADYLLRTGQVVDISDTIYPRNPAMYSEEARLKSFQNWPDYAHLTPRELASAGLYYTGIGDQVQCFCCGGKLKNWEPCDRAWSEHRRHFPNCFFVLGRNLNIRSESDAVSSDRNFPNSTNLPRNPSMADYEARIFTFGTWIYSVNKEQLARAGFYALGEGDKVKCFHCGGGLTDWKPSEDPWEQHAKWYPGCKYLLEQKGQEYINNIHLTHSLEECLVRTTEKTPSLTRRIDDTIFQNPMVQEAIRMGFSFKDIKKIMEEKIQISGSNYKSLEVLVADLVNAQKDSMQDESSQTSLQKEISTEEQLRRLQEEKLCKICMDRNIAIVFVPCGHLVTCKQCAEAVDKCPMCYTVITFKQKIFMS
Description: FIG. 17 is a scanned image of an autoradiogram, representing SDS-PAGE analysis of ^35S-labeled procaspase-3 following stimulation of 293T S100 extracts (20μg) mixed with purified XIAP (50 ng) with cytochrome c (0.5 μg) plus dATP (1 mM), in the presence of increasing amounts (10, 50, or 300 ng, respectively) of purified mature WT Omi, Omi-ΔAVPS, Omi-S306A, or mature Smac in 10 μl reaction volume. In the fifth lane, S100 extracts were incubated with. 300 ng of WT Omi without XIAP.
Next, it was determined whether Omi, like Smac, promotes caspase-9 activity in HEK293 S100 extracts in the presence of XIAP. To measure the caspase-9 activity in these extracts, ^35S-labeled procaspase-3 was added to the S100 extracts and stimulated the extracts with cytochrome c and dATP. […] These observations indicate that Omi, like Smac, is able to disrupt the interaction of caspase-9 with XIAP in the S100 extracts to promote procaspase-3 activation.

endogenous XIAP = biological target: T4, endogenous XIAP (Homo sapiens, UniProt P98170); experiment: Co-immunoprecipitation with endogenous XIAP in transfected 293T cells; assay type: cell-based; details: 293T cells transfected with C-terminal Flag-tagged Omi precursors, XIAP western blot
T4 construct: endogenous in cells; host or cells: 293T cells
T4 sequence (P98170 whole entry): as above
Description: FIG. 9 is a scanned image of a blot representing western blot analysis using an XIAP monoclonal antibody (upper panel) or Flag antibody (middle panel) of 293T cells transfected with constructs encoding C-terminal Flag-tagged Omi wild type or mutant precursors and immunoprecipitated with Flag antibody. The lower panel is a scanned image of a blot representing total extracts probed with the XIAP antibody. Arrows indicate IgG bands.

Hela cells = experiment: Staurosporine-induced apoptosis of Hela cells transfected with Omi precursor; assay type: cell-based, human; details: for apoptosis potentiation compared to vector-transfected cells: staurosporine, indicated or higher doses
Description: FIG. 18 is a bar graphic representation of the percentages of GFP-positive apoptotic HeLa cells following treatment with the indicated doses of staurosporine for five hours, 24 hours after transfection. The Hela cells were transfected with an empty vector or a construct encoding a C-terminally Flag-tagged Omi precursor together with pEGFP-N1 plasmid (Clontech) at a 4:1 ratio. The AVPS motif in the […] Omi precursor is mutated to a VVAS sequence (SEQ ID NO:10) to prevent binding to IAPs. The Insert represents the expression of mature Omi wild type and Omi S306A mutant in the transfected cells as determined by immunoblotting with Flag antibody.
To determine whether release of Omi can potentiate apoptosis, human Hela cells were transfected with the Omi precursor, and the cells were stimulated with different doses of staurosporine.

Row | Molecule | interaction with GST-BIR3 fusion protein [2] | promotion of procaspase-3 activation [3] | apoptosis potentiation compared to vector-transfected cells (Hela cells; five hours) | also measured
1 | B1 | able to interact equally with the wild type GST-BIR3 protein |  |  | interaction with GST-BIR1, 2 fusion protein [1]: able to interact with the GST-BIR1, 2 fusion protein; interaction with GST-BIR3-E314S mutant (GST-BIR3-E314S mutant): not with the GST-BIR3-E314S mutant
2 | B2 | did not affect its interaction with GST-BIR3 | able to promote procaspase-3 activation in the XIAP-containing S100 extracts almost to the same extent as Smac |  | 
3 | B3 | completely abolished its interaction with the GST-BIR3 fusion protein | abolished its caspase-promoting activity |  | 
4 | B4 |  |  |  | interaction with endogenous XIAP in vivo (endogenous XIAP): abolished its interaction with endogenous XIAP
5 | B5 |  |  | increased apoptosis was observed | transfected cells showing signs of apoptosis (Hela cells; 500 nM staurosporine, five hours, 24 hours after transfection, vector transfected cells ~20%): ~43%; induction of apoptosis (Hela cells; transiently expressed, absence of staurosporine): did not induce apoptosis
6 | B6 |  |  | No apoptosis potentiation was observed | 
